# The nanobody polyreactivity screen of Harvey et al. (2022)
# Experiment: yeast display, Sf9 membrane polyspecificity reagent, FACS + sequencing; frameworks hold sequencing errors
# Summary of the method: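 Using colony PCR, genes from sorted yeast display clones were amplified, then sequenced on MiSeq at 2 × 250 and filtered by CDR length. The clones had been stained with 10% biotinylated, detergent-solubilized Sf9 membrane reagent for 1 hour at 4 °C and sorted by FACS into low and high (top ~1%) gates on anti-HA and streptavidin fluorescence. Polyreactivity labels come from the gate of origin.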
row,Sequence,polyreactivity (PSR sort gate)
1,QVQLVESGGGLVQAGGSLRISCAASGFTFVINEMGWYRPAPGKERELVADITSGGDTYYADSVKGRFTISRDNAKNTVYLQMNSLKPEDTAVYYCAAYIYPDWIYLLYGYWGQGTQVTVSS,low polyreactivity
2,QVQLEESGGGLVQAGGSLRLSCAASGFTFFSYYAMGWYIQAPGKERELVATITSGASTNYADSVKGRFTISRDNAKNTVYLQMNSLKPEDTAVYYCAAAYFYWRVDKYYYWGQGTQVTVSS,low polyreactivity
3,QVQLEESGGGLVQAGGSLRLSCAASGSTYACYYMGWYIQAPGTEREFVAAIDYGGGSTYADSVQGRFTISRDNAKITVYLQMNSLKPEDTAVYYCYADNWVYLYVYWGQGTQVTVSS,low polyreactivity
4,QVHLVESGGGLVQAGGSLRLRCAASGIIFKSYAMGWYRQAPGKERELVAAITKRGGSTYYADSVKGRFTISRDNAKNTVYLQMNSLKPEDTAVYDCAADDGVGNTDDYWGQGTQVTVSS,high polyreactivity
5,QVQLVESGGGLVQAGGSLRLSCAASGSIFYVYTMGWYRQAPGKERELVAAITVSGGRTYYADSVKGRFTISRDNAKNTVYLQLNSLKPEDTAVYYCAADTAWPYYIYWSYDYWGQGTQVTVSS,low polyreactivity
6,QVQLVESGGGLFQAGGSLRLSCAASGFTFVDYAMAWYRQAPGKERELVAAITVSGDSTYYADSVKGRFTISRDNAKNTVYLQMNSLKRADTAFYYCAADPGYYYGGYWGQGTQVTVST,low polyreactivity
7,QVQLVESGGGLVQAGGSLRLSCAASGSTFVYMGWYRQAPGKEREFVAAITWSGGSTYYADSVKGRFTISRDNAKNTVYLQMNSLKPEDTAVNYCNAVSVIPGWARYYSWGQGTQVSVSS,low polyreactivity
8,QVQLVESGGGLVQAGGSLRLSCAASGSIFEAYAMGWYRQAPGKEREVVAVISWRGGRTYYADSVKGRFTISRDNAKNTVYLQMNSLNPEDTAVYYCNKAYWWHQVGLPRNYEYWGQGTQVTVSS,low polyreactivity
9,QVQHVESGGGLVQAGGSLRLSCAASGSIFRRNAMGRYRQAPGKVRELVAGISGGGSTYYADSVKGRFTISRDNAKNTVYLQMNSMKPEDTAVYYCATDKHYRSAGFDYWGQGTQVTVSS,low polyreactivity
10,QVQLVESGGGLLQAGGSLRLSCASSGITFGDNVMGWYRQAPGKERELVAAISRIGDDTYYADSVKGRFTISRDNAKNTVFFQMNSLKPEDTAVYYCATDFTQRDYYNYGYWGQRTQVTVSS,low polyreactivity
11,QDQLVESGGGLVQAGGSLRLSCAASGRTFRRNAMGWYRQAPGKERELVAAITWRGTSTYYADSVKGRFTISRDNAKNTVYLQMNSLKPEDTAVYYCAAVVKDSRPYQAYVGSIHRDYWGQGTQVTVSS,high polyreactivity
12,QVQLVESGGGLVQAGGSLRLSCAASGSIFRTNAMGWYRQAPGKEREFVASISSDSGNTYYADSVKGRFTISRDNAKNTVYLQMNSLKPEDTAVYYCARRKVRYWSYRAANYYWGQGTQVTVSS,low polyreactivity
13,QVQLVESGGGLVQAGGSLPLSCAASGRIFRGYAMGWYRQAPGKERELVAAISRTGGSTYYADSVKGRFTISRDNAKNTVYLQMNSLKPEDTEVYYCNANRFRRYDWGQGTLVTVSS,high polyreactivity
14,QVQLLESGGGLVQPGGSLRLSCAASGRTFRLNGMGWNRQAPGKERELVAAITWSGGRTYYADSVKGRFTISRDNAKKTVYVQMNSLTPEDTAVYYCAADFRDGFTSRYGYWGQGTQVTVSS,high polyreactivity
15,QVQLVESGGGLVQAGGSLRLSCAASGNIFFVYAMGWYRQAPGKERELVATITWRGDSTNYADSVKGRFTISRDNAKNTVYLQMNSLKPEDTAVYYCNAEDSYYTFEGDSWGQGTQVTVSS,low polyreactivity
16,QVHLVESGGGLVQAGGSLRLSCAASGSIFRNNAMGWYRQAPGKARELVAVISRSGGSTYYADSVKGRFTISRDNAKNTVYLDMNSLKPEDTAVYYCDVGYWGRLGFRGYGYWGQGTQVTVSS,low polyreactivity
17,QVQLLESGGGLVQAGGSLRLSCAASGSIFRGNAMGWYRQAPGKERELVAAISQRGTSTYYADSVKGRFTISRDYAKNTVYLQMNSLKPEDTAVYYCNALYWQIGDDYWGQGTQVTVSS,high polyreactivity
18,QFQLVESGGGIVQAGGRLRLSCAASGSTFFGYAMGWFRQAPGKVRELVAAISSGGSTYYADSVKGRFTISRDNAKNTVYVQMNSLKPEDTAVYYCAAYSYPKKYGYWGQGTQVTVSL,high polyreactivity
19,QVQLVESGGGLVHAGGSLRLSCDASGLIFYGYAMGWYRQAPGKERQLVADITYSGGRTYYADSVKGRFSISRDNAKNTVYFQMHSLKAEDTAVYYCNARHRSHSNSQPGWKYVYWGQGTQVTVSS,low polyreactivity
20,QVQLQESGGGLVQEGGSLRLSCAASGNISPPADMGWYRPAPGKERELVASIGTGGTTNYADSVKGRFTISRDNAKNTVYLQMNSLKPEDTAVYYCNVRYRSAGSRYGYWGQGTQVTVSS,low polyreactivity
21,QVQLVESGGGLVQAGGSLRLSCAASGRTFINYAMGWYRQAPGKERELVAAITTGGRTNYADSVKGRFTISRDNAKNTVYLQMNILKPEDTAVYYCAADRYYWGRYTLNYWGQGTLVTVSS,low polyreactivity
22,QVQLVESGGGLVQAGGSLRLSCAASGFTFVSNAMGWYRQAPGKEREMVADITSDGSTNYADSVKGRFTISRDNAKNTVSLQMNSLKPEDTAVYYCNADASYGFWSLLHYDYWGQATQVTVSS,low polyreactivity

row,Sequence,polyreactivity (PSR sort gate)
1,QVLLVESGGGLVQAGGSLRLSCAASGFTFQLYAMGWYRQAPGKEREIVSAIRRNGGSTYYADSVKGRFTISRDNAKNTVYLQMNSLKPDDTAVYYCAADWYSYLHGTKYGYWGQGTQVTVSS,high polyreactivity
2,QVQLVESGGGLVQAGGSLRLSCAASGSIFYLYAMGWYRQAPGKERELVATMSSSGGSTYYADSVKGRFTISRDNAKNTVYLQMISLKPEDTAVYYCNADYIYYGTTYEYWGQGTQVTVSS,low polyreactivity
3,QVQLVESGGGLVQAGGSLRLSCAASGIIFYQYAMGRNRQAPGKERELVAAISSGVNTYYADSVKGRFTISRDNAKNTVYLQMNSLKPEDTAVYYCAAEKGRLYDWFDIYYIEYYYWGQGTQVTVSS,high polyreactivity
4,QVQLVESGGGLVQAGGSLRLSCAASGRIFAKYAMGWSRQAPGTERELVAAISWRGGRTYYADSVKGRFTISRDNAKNTVYLQMNSLKPEDTAVYYCNAVGSRAYVASAWTQMDYWGQGTQVTVSS,high polyreactivity
5,QVQLVESGGGLVQAGGSLRLSCAASGFTFITNAMGWYRQAPGKERELVASISIGGSTNYADSVKGRFTISRDNAKNTVYLQMNSLKPEDTAVYYCAARVYRRLFLPGRYGRPLGYWGQGTQVTVTS,high polyreactivity
6,QVQLVESGGGLVQAGVSLRLSCAASGLTFGNYAMGWYRQAPGKERELVAAISKRGGTTYYADSVKARFTISRDNAKNTVYLQMNSLKPEDTAVYYCSARDYSHPTDDNYWGQGTQVTVSS,high polyreactivity
7,QVQLVESGGGIVKAGGSLRLSCAPSGSTFDYYTMGWYRQAPGKERELVAAISRSGGSTRYADSVKGRFTISRDNAKNTVDLQMNSLKPEDTAVYYCAAGARQGVYRGGDYWGQGTQVTVSS,low polyreactivity
8,QVQLVESGGGLVQAGGSLRLSCAASGITFNVYTMGWYRQAPGKERELVAAITSSGGSTYYADSVKGRFTISRDNAKNTVYLQMNSLKPEDTAVYYCAARGWTRYSPSSRWYDYWGQGTQVTVSS,high polyreactivity
9,QVQLVESGGGLVQAGGSLRLSCAASGRIFKYNAMGWYRPAPGKERELVAAISGTGGSTYYADSVKGRFTISRDNAKNTVYLQMNSLKPEDTAVYYCNRRYYGHSTWKYDYWGQGTQVTVSS,high polyreactivity
10,QVQLVESGGGLVQAGGSLRLSCAASGSIFPPYVMGWYRQAPGKERELVASITTSGGSTYYADSVKGRFTISRDNAKNPVYLQMNSLKPEDTAVYYCAARWYYGGKSAGPGGGYWGQGTQVTVSS,low polyreactivity
11,QVQLVESGGGLVQAGGSLRLSCAASGFIFLYAMGWSRQAPRKERELVAAISWSDTSTYYADSVKGRFTISRDNAKNTVYLQMNSLIPEDTAVYFCNAETWNYGDFDYWGQGTQVTVSS,high polyreactivity
12,QVQLVESGGGLVQAGGSLRLSCAACGRTSSIYAMGWYRQAPGKERELVATITGGAVSTSYADSVKGRFTISRDNAKNTVYLQMNSLKPEDSAVYYCADDHWRYRSRPVNYWGLGTQVTVSS,high polyreactivity
13,QVQLVESGGGLVQAGGSLRLSCAASGSIFLNNAMGWYSQAPGKERELVAAITRNVGSTYYADSVKGRFTISRDNAKNTVYLQMNSMKPEATAVYYCAADRRRRYDYWGQGTQVTVSS,low polyreactivity
14,QVQLVESGGGLVQAGGSLRLSCAASGSIIHNYDMGWYRPAPGTETEFVAAINWSGGNTHYADSVKGRFTISRDNAKNTFYLQMNSLKPEDTAVYYCAADSGFDTAPYDYWGQGTQVTVSS,low polyreactivity
15,QVQLVESGGGLVQAGGSLRLSCAASGRILSPYAMGWYRQAPGKERELVAVINTSGGRTYYADSVKGRFTISRDNAKNTVYLQMNSLKPEDTAVYYCAARERKVQYDYWGQGTQVTVSS,high polyreactivity
16,QVQLVESGGGLVQAGGSLRLSCAASGFIFGGNAMGWYRQAPGKERELVAAISKSGGRTYYADSVKGRFTISRDNAKNTVYLQMNSLKPEDTAVYYCAAVPGRTAEDYGEDYWGQGTQVTVSS,high polyreactivity
17,QVHLVESGGGLVQAGGSLRLSCAASGSIKQNAMGWYRQAPGKERELVAAIDWDGSSTYYADSVKGRFTISRDNAKNTVYLQMNSLKPEDTAVYYCNTDYTGPDGTDEYDYWGQGTQVTVSS,low polyreactivity
18,QVQLVESGGGLVQAGGSLRLSCAASGRIFGVNVMGWYRQAPGKERELVAGINSSGGSTYYADSVKGRFTISRDNAKNTVYLQMNSLKPEDTAVYYCDVRSIWRYGYWGQGTQVTVSS,high polyreactivity
19,QVQLVESGGGLVQAGGSLRLSCAASGITFVNYAMGWYRQAPGKERELVAAISGDGGNTYYADSVKGRFTISRDNAKNTVYLQMNSLKPEDTAVYYCAATPYLYRLYGYWYRPYYYWGQGTQVTVSS,high polyreactivity
20,QVQLVESGGGLVQAGGSLRLSCAASGFTFAVYDMGWYRQAPGKERELVASITGDSTNYADSVKGRFTISRDNAKNTVYLQMNSLKPEDTAVYYCAAEYVPYYEYESWGQGTQVTVSS,low polyreactivity
21,QVQLVESGGGLVQAGGSLRLSCAASGGIFWHYTMGWYRQAPGKERELVAAITRRGGSTYYADSVKGRFTISRDNAKNSVYLQMTSLKREDTAVYYCAADFLPQSYNWYDYWGQGTQVTVSS,low polyreactivity
